Measurements taken from patent publication US20120093787A1.

Key:
[1] = biological target: wild-type CXCR4 isoform B (X4b-WT), expressed on CXCR4-/- B4 SupT1 cells by lentiviral transduction (UniProt P61073); experiment: flow cytometry on X4b WT B4 SupT1 transfectants, PE goat anti-mIgG detection
[2] = biological target: C34-CXCR4 isoform B fusion protein (C34-X4b), expressed on CXCR4-/- B4 SupT1 cells by lentiviral transduction (Pan troglodytes (Chimpanzee)) (UniProt P61072); experiment: flow cytometry on C34-X4b B4 SupT1 transfectants, PE goat anti-mIgG detection
UniProt P61072, sequence (P61072 1-352, tags or fused parts left off): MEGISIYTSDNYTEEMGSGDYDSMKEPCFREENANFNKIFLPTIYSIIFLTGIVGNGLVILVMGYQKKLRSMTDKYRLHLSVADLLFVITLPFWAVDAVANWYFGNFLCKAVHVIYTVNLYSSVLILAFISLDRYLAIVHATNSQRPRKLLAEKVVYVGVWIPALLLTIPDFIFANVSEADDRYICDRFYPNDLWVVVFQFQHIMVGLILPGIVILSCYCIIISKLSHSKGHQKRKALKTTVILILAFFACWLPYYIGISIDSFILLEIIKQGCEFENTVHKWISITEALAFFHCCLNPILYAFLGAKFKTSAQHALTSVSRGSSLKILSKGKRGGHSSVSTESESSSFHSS

UniProt P61073, sequence (P61073 whole entry, the tested form may be a part, canonical isoform): as the sequence (P61072 1-352, tags or fused parts left off) above

Substance	MFI [1]	positively stained cells (%) [1]	MFI [2]	positively stained cells (%) [2]
anti-CXCR4 monoclonal antibody 12G5 (BD Biosciences)	214 MFI	95.8%	253 MFI	96.6%
isotype control mIgG1 (antibody)	–	0%	–	0%
isotype control mIgG2a (antibody)	–	0.98%	–	0.39%
